{"source": "patent US20180282403A1", "about": "“AGENTS FOR REDUCING THE ACTIVITY OF GDF15” (GENAGON THERAPEUTICS AB, priority 2015, published 2018)", "assay_type_in_all_cases": "cell-based", "key": {"QRFPR [1]": {"target": "T1, QRFPR (Homo sapiens, UniProt Q96P65)", "T1 construct": "endogenous in cells", "T1 sequence (Q96P65 1-431)": "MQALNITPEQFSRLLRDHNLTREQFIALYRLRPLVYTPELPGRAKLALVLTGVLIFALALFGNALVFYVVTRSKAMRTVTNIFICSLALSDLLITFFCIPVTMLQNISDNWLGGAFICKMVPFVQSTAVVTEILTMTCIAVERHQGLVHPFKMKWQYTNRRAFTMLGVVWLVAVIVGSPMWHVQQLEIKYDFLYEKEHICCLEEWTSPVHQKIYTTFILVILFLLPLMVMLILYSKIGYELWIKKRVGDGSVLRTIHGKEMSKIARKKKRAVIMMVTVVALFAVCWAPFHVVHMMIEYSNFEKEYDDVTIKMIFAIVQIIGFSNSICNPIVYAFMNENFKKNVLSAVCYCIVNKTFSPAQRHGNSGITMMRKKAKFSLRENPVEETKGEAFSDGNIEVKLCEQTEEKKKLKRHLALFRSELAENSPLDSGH", "assay": "In situ PLA detection of EEA1-QRFPR proximity", "conditions": "GDF15 5 min; FIG. 3C-D", "from_the_text": "[…] (EEA1) is a marker for rapid endosome formation, and an assay was developed to detect the proximity of EEA1 and QRFPR. In the absence of GDF15, no signal was obtained (FIG. 3C)."}, "CLPTM1 [2]": {"target": "T2, CLPTM1 (Homo sapiens, UniProt O96005)", "T2 construct": "endogenous in cells; host or cells: NK-92 cells", "T2 sequence (O96005 1-669)": "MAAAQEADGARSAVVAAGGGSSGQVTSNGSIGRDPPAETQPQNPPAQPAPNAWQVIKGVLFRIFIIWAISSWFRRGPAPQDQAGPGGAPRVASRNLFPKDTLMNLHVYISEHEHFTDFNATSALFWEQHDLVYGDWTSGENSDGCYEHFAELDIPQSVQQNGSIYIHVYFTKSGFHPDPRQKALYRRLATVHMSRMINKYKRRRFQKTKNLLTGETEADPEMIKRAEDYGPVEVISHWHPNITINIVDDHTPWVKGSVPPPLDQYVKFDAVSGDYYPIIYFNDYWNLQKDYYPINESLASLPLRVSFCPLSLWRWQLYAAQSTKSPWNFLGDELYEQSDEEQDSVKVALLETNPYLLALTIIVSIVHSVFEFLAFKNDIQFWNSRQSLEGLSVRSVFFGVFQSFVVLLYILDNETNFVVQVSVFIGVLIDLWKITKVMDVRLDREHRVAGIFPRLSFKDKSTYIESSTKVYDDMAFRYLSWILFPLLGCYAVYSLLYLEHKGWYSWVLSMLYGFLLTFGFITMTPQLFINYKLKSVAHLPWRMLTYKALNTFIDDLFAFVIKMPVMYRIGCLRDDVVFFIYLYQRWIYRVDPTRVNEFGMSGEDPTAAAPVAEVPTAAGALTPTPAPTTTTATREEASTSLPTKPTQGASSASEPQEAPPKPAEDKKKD", "assay": "Detection of NKG2D in NK-92 cells after extended GDF15 stimulation", "conditions": "overnight GDF15 stimulation, FIG. 21A", "from_the_text": "Based upon literature, the expression of CLPTM1 in immune cells such as CD8+T-lymphocytes and NK-92 cells, and the GDF15 induced proximity of CLPTM1 to TGFBRI-TGFBRII (through which TGFB1 signals), we investigated whether blockade of CLPTM1 by antibodies could affect the levels of the immune effector NKG2D in NK-92 cells that had been subjected to extended stimulation with GDF15. […] The decrease in NKG2D was reversed in NK-92 cells that had been pre-treated with a binding agent capable of binding to CLPTM1 (an antibody) prior to GDF15 stimulation (FIG. 21B). […] We propose that this may increase their cytotoxicity."}, "QRFPR [3]": {"target": "T1, QRFPR", "assay": "Western blot of QRFPR positive exosomes from conditioned medium of MCF-7 cells", "conditions": "MCF-7 cells exposed to GDF15 vs not exposed; FIG. 1B", "experimental": "Conditioned cell culture media were sequentially centrifuged for 5 min at 3,000 x g to pellet the cells and then at 10,000×g for 10 min to further remove cells and cell debris. The supernatant was then filtered through a 0.45 μm filter and then finally pelleted at 100,000×g for 2 h at 4° c. Pelleted exosomes were resuspended in PBS and protease inhibitor (complete mini, Roche) was added. The samples were then prepared for further analyses as described elsewhere.\nMaterial from the ultracentrifuged pellet was separated on a 12.5% SDS-PAGE gel (Biorad) at 150 v for 80 min, wet transferred to a Immobilon K membrane, blocked with 5% BSA for 1 h RT, and incubated with the corresponding QRFPR antibodies o/n at +4 with mild agitation. The membranes were washed with TBST, and the corresponding secondary antibodies, conjugated to horse radish peroxidase, were applied for 1 hr RT, the membrane washed with TBST and developed using an ECL detection reagent (FIG. 1B)."}, "CLPTM1 [4]": {"target": "T2, CLPTM1", "assay": "In situ PLA detection of the CLPTM1-TGFBRI complex in NK-92 cells", "conditions": "GDF15 stimulation, FIG. 14", "experimental": "GDF15 has been reported in the literature to mediate downstream signalling resembling both the canonical (SMAD) pathway mediated by ALK5(TGFBRI) kinase domain, and non-canonical TGFβ receptor signalling, such as phosphorylation of GSK3b. In order to investigate if CLPTM1 was involved in this we developed a set of in situ PLA assays to determine the dynamics between CLPTM1 and the TGFβ receptors and components downstream of the TGFβ receptors. NK-92 cells were treated with GDF15 for 40 min to detect phosphorylated SMAD proteins such as SMAD2 in the nucleus. […] From previous experiments with TGFB1 stimulation we know that the assay (pSMAD2) was functional."}, "CLPTM1 [5]": {"target": "T2, CLPTM1", "assay": "Detection of phosphorylated GSK3b (9/21) in NK-92 cells (in situ PLA, Western blot)", "conditions": "GDF15 in the presence of control antibody, FIG. 16", "experimental": "A-C) In situ PLA detection of phosphorylated GSK3b (GSK3b-p(9/21) using a pair of proximity probes A) Negative control cells with no added GDF15. B) Cells after exposure to GDF15 and control antibody. C) Cells after exposure to GDF15 following pre-incubation with a monoclonal antibody targeting the extracellular domain of CLPTM1 D) Western Blot indicating the levels of phosphorylated GSKb (p-GSKb). Lane 1—No GDF15. Lane 2—GDF15 stim+ ctrl ab. Lane 3 GDF15 stim+ mAb mouse (antibody used in in situ PLA experiment).\nThe effect of antibodies binding CLPTM1 on inhibiting GDF15 induced downstream signalling through the TGFB heterotetrameric complex was assessed by detecting phosphorylated GSK3b-pGSK3b(9/21) in an in situ PLA assay. Phosphorylation of GSK3b is known to cause immunosuppressive effects i.e. suppress immune cell function."}}, "data": [{"substance": "GDF15: Growth and differentiation factor 15, from mammalian source or recombinant from E. coli (Abcam, Biovision)", "values": [{"measurement": "EEA1-QRFPR proximity (RCA products)", "setting": "QRFPR [1]", "value": "increase the number of RCA products"}, {"measurement": "levels of detectable NKG2D", "setting": "CLPTM1 [2]", "value": "low levels of detectable NKG2D"}, {"measurement": "QRFPR in exosomes from conditioned medium", "setting": "QRFPR [3]", "value": "higher levels of QRFPR in conditioned medium"}, {"measurement": "proximity between CLPTM1 and TGFBRI(ALK5)", "setting": "CLPTM1 [4]", "value": "induced proximity between CLPTM1 and TGFBRI(ALK5)"}, {"measurement": "9/21 phosphorylation of GSK3b", "setting": "CLPTM1 [5]", "value": "induces 9/21 phosphorylation of GSK3b"}]}]}
